Experimental data taken from US20200129630A1, “METHODS FOR TREATING CANCER” (BicycleRD Limited, priority 2018, published 2020).
Read-outs that look alike come from different tables or passages of the source. Numbered stars: 1 amine (or outer) side, 2 acyl side, 3 side chain; on linkers, the order of the positions; unused ones are H or OH. Bridge positions count the residues as written; N and C are the ends. Square brackets hold non-standard residues; d marks the D form. Peptide text beside a SMILES is read from it. * marks the point of attachment. X1 = COc1cc2cc(c1Cl)N(C)C(=O)C[C@H](OC(=O)[C@H](C)N(C)C(=O)CCSSC(C)CCC(=O)*)[C@]1(C)O[C@H]1[C@H](C)[C@@H]1C[C@@](O)(NC(=O)O1)[C@H](OC)/C=C/C=C(\C)C2; 1Nal = N[C@@H](Cc1cccc2ccccc12)C(=O)O; TBMB = c1c(C[*:1])cc(C[*:3])cc1C[*:2]; Tle = CC(C)(C)[C@H](N)C(=O)O; βAla = NCCC(=O)O; Sar = CNCC(=O)O

Tests used:
[1] = Stability in plasma in vitro, rat; assay type: in vitro ADME; settings: 37° C.
Procedure: (§1) The stability of BT1718 was assessed in plasma and whole blood from humans, monkey, dog, mouse and rat. […] The mechanism for the difference in stability of the BT1718 peptide in whole blood between the different species is unknown.

BALB/c mouse PK study = settings: female; for Cmax: BALB/c mouse, 15 mg/m^2 (5 mg/kg) IV
HCC-1806 = test: In vitro cytotoxicity (CellTiter-Glo) HCC-1806; assay type: cell-based; settings: HCC-1806, Breast
From the text: (§2) Table 1 and Table 2 Notes: in general regression and stable disease correlated with the in vitro cytotoxicity and MT1-MMP expression. Female BALB/c mice n=3/group animals dosed twice per week except EBC-1 three per week. Tumor growth inhibition (TGI) (%)=[1−(Ti−T0)/(Vi−V0)]×100; Ti is the average tumor volume of a treatment group on a given day, TO is the average tumor volume of the treatment group on the day of treatment start, Vi is the average tumor volume of vehicle control group on the same day with Ti, and V0 is the average tumor volume of vehicle group on the day of treatment start. A one-way ANOVA was performed to compare tumor volume among groups, and when a significant F-statistics (a ratio of treatment variance to the error variance) was obtained, comparisons between groups were carried out with Games-Howell test. All data were analyzed using GraphPad Prism.* p<0.05, ** p<0.01, *** p<0.001. In vitro cytotoxicity was measured by CellTiter-Glo®, MT1-MMP membrane H score from immunohistochemistry staining, NM not measured. Tumor size on Day 1 of dosing.

[2] = nu/nu BALB/c mouse PK study; assay type: in vivo; settings: plasma, 15 mg/m2, 15 mg/m^2 IV
[3] = PK samples in EBC-1 xenograft study; settings: female, BALB/c, mouse, plasma, iv
[4] = Crl:WI(Han) rat non-GLP tox study toxicokinetics; assay type: in vivo, Crl: WI(Han) rats; settings: male, plasma, iv
NCI-H1975 = test: In vitro cytotoxicity (CellTiter-Glo) NCI-H1975; assay type: cell-based; settings: NCI-H1975, NSCLC
From the text: as §2

[5] = Intrinsic clearance in cryopreserved hepatocytes; assay type: in vitro ADME
Procedure: Accumulation of the majority of the radioactivity was found in the kidney and bladder irrespective of the labelled peptide dose; this is indicative of either non-saturable excretion or proteolysis followed by excretion through the kidneys. Furthermore, the intrinsic clearance of BT1718 and its Bicycle component, N241 was low when measured in cryopreserved hepatocytes. […] Unconjugated DM1, when radiolabelled, (as [[^3H]-DM1 (91 μCi/kg, 200 μg/kg, IV), was reported to distribute rapidly and extensively to the lungs, liver, kidney, spleen, heart, gastrointestinal tract, and adrenal glands in the rat. The major route of excretion of DM1 was through the bile/faeces, with a minimal amount excreted in the urine, a completely different distribution to BT1718 and its metabolites with little and short lived accumulation seen in other organs such as heart, liver, GI and lungs which would imply that these organs maybe spared systemic toxicity.

[6] = Plasma protein binding, human; assay type: in vitro ADME
Procedure: Plasma protein binding of BT1718 was also assessed. The mean plasma protein binding of the BT1718 peptide ranged from 87% to 98%, with the free fraction of BT1718 being 13% in human, 2.6% in rats, 7.5% in mice, 3.8% in monkey and 1.5% in dog plasma, the results had no correlation to the plasma and whole blood stability data. […] Plasma protein binding of unconjugated DM1, has previously been reported, with the unbound fraction being 7% in human and monkey and 3% in rat.

[7] = Repeat dose toxicokinetics, rat and monkey; assay type: in vivo; settings: both sexes, plasma, intravenous, rat or monkey, irrespective of dose, read-out: Plasma t1/2
From the text: In a repeat dose experiment with BT1718 no significant gender-related differences in the TK parameters for the rat or monkey were noted. Exposure in both the rat and monkey increased approximately linearly with dose and was maintained for 28 days on repeat dosing. […] Plasma clearance and volume of distribution were similar across BT1718 dose and consistent with the PK studies.

[8] = CD1 mouse dose response PK study
MOLP-8 = test: In vitro cytotoxicity (CellTiter-Glo) MOLP-8; assay type: cell-based; settings: MOLP-8, Myeloma
From the text: as §2

[9] = Stability in plasma in vitro, human; assay type: in vitro ADME; settings: 37° C.
Procedure: as §1

HT-1080 = test: In vitro cytotoxicity (CellTiter-Glo) HT-1080; assay type: cell-based; settings: HT-1080, Fibrosarcoma
From the text: as §2

[10] = Stability in whole blood in vitro, human; assay type: in vitro ADME; settings: 37° C.
Procedure: as §1

[11] = Stability in plasma in vitro, mouse; assay type: in vitro ADME; settings: 37° C.
Procedure: as §1

[12] = Stability in whole blood in vitro, monkey; assay type: in vitro ADME; settings: 37° C.
Procedure: as §1

[13] = BALB/c, mouse, plasma, iv, 15 mg/m2
[14] = male, CD1, mouse, plasma, iv, 15 mg/m2
[15] = male, CD1, mouse, plasma, iv, 30 mg/m2
[16] = male, CD1, mouse, plasma, iv, 60 mg/m2

`COc1cc2cc(c1Cl)N(C)C(=O)C[C@H](OC(=O)[C@H](C)N(C)C(=O)CCSSC(C)CCC(=O)NCCC(=O)N(C)CC(=O)N(C)CC(=O)N(C)CC(=O)N(C)CC(=O)N(C)CC(=O)N(C)CC(=O)N(C)CC(=O)N(C)CC(=O)N(C)CC(=O)N(C)CC(=O)N[C@@H](C)C(=O)N[C@H]1CSCc3cc4cc(c3)CSC[C@H](NC(=O)[C@@H](C)NC(=O)[C@H](Cc3cccc5ccccc35)NC(=O)[C@H](CCC(=O)O)NC(=O)[C@H](CC(N)=O)NC(=O)[C@@H](C)NC1=O)C(=O)N[C@@H](CCC(=O)O)C(=O)N[C@@H](CC(=O)O)C(=O)N[C@@H](Cc1ccccc1)C(=O)N[C@@H](Cc1ccc(O)cc1)C(=O)N[C@@H](CC(=O)O)C(=O)N[C@@H](C(C)(C)C)C(=O)N[C@H](C(N)=O)CSC4)[C@]1(C)O[C@H]1[C@H](C)[C@@H]1C[C@@](O)(NC(=O)O1)[C@H](OC)/C=C/C=C(\C)C2` (stereo partly drawn) [BT1718] ({X1-βAla}-[Sar][Sar][Sar][Sar][Sar][Sar][Sar][Sar][Sar][Sar]AC[dA]NE[1Nal][dA]CEDFYD[Tle]C-NH2; linker 12-18-25 via TBMB (inferred)) showed a half-life [1] of over 360 min, an AUC (BALB/c mouse PK study; BALB/c, mouse, plasma, intravenous, 5 mg/kg) of about 2.5 µM·h and a Cmax (BALB/c mouse PK study; BALB/c, mouse, plasma, iv, 5 mg/kg, C0/Cmax) of 8 µM. For the same compound, the AUC (BALB/c mouse PK study; [13]) was 2.3 ± 0.2 µM·h, the Vd (BALB/c mouse PK study; [13]) was 0.23 ± 0.09 L/kg and the clearance (BALB/c mouse PK study; [13]) was 7.5 ± 0.6 mL/min/kg. It also gave a half-life (BALB/c mouse PK study; [13]) of 33.6 ± 10.8 min, a Cmax (BALB/c mouse PK study; read-out: C0/Cmax) of 7.2 ± 0.41 µM and an IC50 (HCC-1806) of 1.4 nM. It also gave an AUC [2] of 1.7 ± 0.3 µM·h, a clearance [2] of 10.6 ± 1.5 mL/min/kg and a half-life [2] of 25.8 ± 2.4 min. It also gave a Cmax ([2]; read-out: C0/Cmax) of 5.8 ± 0.94 µM, a Vd ([2]; read-out: Vdss) of 0.26 ± 0.08 L/kg and a Cmax ([3]; 3 mg/kg) of 1.5 ± 0.9 µM. The Cmax ([3]; 10 mg/kg) was 7.6 ± 0.6 µM, the Cmax ([4]; 1.2 mg/m2, read-out: C0/Cmax) was 0.1 ± 0.01 µM and the Cmax ([4]; 6 mg/m2, read-out: C0/Cmax) was 0.4 ± 0.14 µM. For the same compound, the IC50 (NCI-H1975) was 19.7 nM, the intrinsic clearance [5] was “low” and the fraction unbound ([6]; human plasma, read-out: free fraction) was 0.13. It also gave a fraction unbound ([6]; range across human, rat, mouse, monkey and dog plasma, read-out: mean plasma protein binding) of 0.02 to 0.13, a half-life [7] of 12 to 33.6 min and an AUC ([8]; CD1, mouse, plasma, intravenous, 10 mg/kg) of 5.3 µM·h. The AUC ([8]; CD1 mouse, male, 30 mg/m^2 IV) was 5.3, the AUC ([8]; CD1 mouse, male, 60 mg/m^2 IV) was 11.6 and the AUC ([8]; male, CD1, mouse, plasma, intravenous, 20 mg/kg) was 11.6 µM·h. The AUC [8, 14] was 2.8 µM·h, the Cmax [8, 14] was 9.3 µM and the Vd [8, 14] was 0.2 L/kg. The clearance [8, 14] was 8.4 mL/min/kg, the half-life [8, 14] was 19.8 min and the Cmax ([8]; male, CD1, mouse, plasma, iv, 20 mg/kg) was 38.2 µM. For the same compound, the Vd [8, 15] was 0.27 L/kg, the clearance [8, 15] was 9 mL/min/kg and the half-life [8, 15] was 20.4 min. For the same compound, the Vd [8, 16] was 0.22 L/kg, the clearance [8, 16] was 8.2 mL/min/kg and the half-life [8, 16] was 20.4 min. For the same compound, the IC50 (MOLP-8) was 141 nM, the half-life [9] was over 360 min and the IC50 (HT-1080) was 4.3 nM. For the same compound, the half-life [10] was 120 to 240 min, the half-life [11] was over 300 min and the half-life [12] was 120 to 240 min.
